Publication PMC2972665 (Biochemistry, 2010)

Target: the molecule itself
Test: AUC

B1: Wild type SgrAI (enzyme, Streptomyces griseus, UniProt Q9F6L0 1-339, looked up)
chain: MPFTYSIEATRNLATTERCIQDIRNAPVRNRSTQFQLAQQNMLAYTFGEVIPGFASAGINGMNYRDVIGRPVENAVTEGTHFFRDDFRVDSNAKAKVAGDIFEIVSSAVMWNCAARWNSLMVGEGWRSQPRYSRPTLSPSPRRQVAVLNLPRSFDWVSLLVPESQEVIEEFRAGLRKDGLGLPTSTPDLAVVVLPEEFQNDEMWREEIAGLTRPNQILLSGAYQRLQGRVQPGEISLAVAFKRSLRSDRLYQPLYEANVMQLLLEGKLGAPKVEFEVHTLAPEGTNAFVTYEAASLYGLAEGRSAVHRAIRELYVPPTAADLARRFFAFLNERMELVNG
Q: For B1, which “stoichiometry N” value is on record?
A: 2 SgrAI chains in the DNA bound dimer
